# From the Human Domainome abundance scans (Beltran et al. 2025)
# ± gives the uncertainty stated by the source.
# B1: Myocardin, residues 363 to 406; numbered along this chain, Q8IZQ8 (parent)
# chain: KPGPLPPNLDDLKVSELRQQLRIRGLPVSGTKTALMDRLRPFQD
# Variants of: B1
# Test: abundance fitness (aPCA) (normalised: wild type 0, dead -1); higher = more abundant; growth selection in yeast, the domain comes from the species named
# Conditions: Homo sapiens
row,Variant,abundance fitness
1,KPGPLPPNLDDLKVSELRQQLRIRGLPVSGTTTALMDRLRPFQD [K32T],-0.349 ± 0.083
2,KPGPLPPNLDDLKVSELRQQLRIRGLPVSGTKTVLMDRLRPFQD [A34V],0.026 ± 0.084
3,KPGPLPPNLDDLKVSELRQQLRIRGLPVSGTKTCLMDRLRPFQD [A34C],-0.467 ± 0.1
4,KPGPLPPNLDDLKVSELRQQLRIRGLPVSGTKTDLMDRLRPFQD [A34D],0.137 ± 0.077
5,KPGPLPPNLDDLKVSELRQQLRIRGLPVSGTKTGLMDRLRPFQD [A34G],-0.556 ± 0.075
6,KPGPLPPNLDDLKVSELRQQLRIRGLPVSGTKTSLMDRLRPFQD [A34S],-0.223 ± 0.085
7,KPGPLPPNLDDLKVSELRQQLRIRGLPVSGTKTELMDRLRPFQD [A34E],0.011 ± 0.066
8,KPGPLPPNLDDLKVSELRQQLRIRGLPVSGTKTTLMDRLRPFQD [A34T],-0.076 ± 0.12
9,KPGPLPPNLDDLKVSELRQQLRIRGLPVSGTKTRLMDRLRPFQD [A34R],-0.642 ± 0.073
10,KPGPLPPNLDDLKVSELRQQLRIRGLPVSGTKTQLMDRLRPFQD [A34Q],-0.601 ± 0.14
11,KPGPLPPNLDDLKVSELRQQLRIRGLPVSGTKTMLMDRLRPFQD [A34M],-0.262 ± 0.18
12,KPGPLPPNLDDLKVSELRQQLRIRGLPVSGTKTLLMDRLRPFQD [A34L],-0.721 ± 0.13
13,KPGPLPPNLDDLKVSELRQQLRIRGLPVSGTKTKLMDRLRPFQD [A34K],-0.4 ± 0.11
14,KPGPLPPNLDDLKVSELRQQLRIRGLPVSGTKTWLMDRLRPFQD [A34W],-1.14 ± 0.28
15,KPGPLPPNLDDLKVSELRQQLRIRGLPVSGTKTFLMDRLRPFQD [A34F],-0.909 ± 0.22
16,KPGPLPPNLDDLKVSELRQQLRIRGLPVSGTKTPLMDRLRPFQD [A34P],-0.825 ± 0.22
17,KPGPLPPNLDDLKVSELRQQLRIRGLPVSCTKTALMDRLRPFQD [G30C],-0.709 ± 0.17
18,KPGPLPPNLDDLKVSELRQQLRIRGLPVSETKTALMDRLRPFQD [G30E],-0.607 ± 0.11
19,KPGPLPPNLDDLKVSELRQQLRIRGLPVSRTKTALMDRLRPFQD [G30R],-0.876 ± 0.12
20,KPGPLPPNLDDLKVSELRQQLRIRGLPVSATKTALMDRLRPFQD [G30A],-0.967 ± 0.14

row,Variant,abundance fitness
1,KPGPLPPNLDDLKVSELRQQLRIRGLPVSNTKTALMDRLRPFQD [G30N],-0.871 ± 0.48
2,KPGPLPPNLDDLKVSELRQQLRIRGLPVSLTKTALMDRLRPFQD [G30L],-0.879 ± 0.12
3,KPGPLPPNLDDLKVSELRQQLRIRGLPVSVTKTALMDRLRPFQD [G30V],-0.894 ± 0.096
4,KPGPLPPNLDDLKVSELRQQLRIRGLPVSYTKTALMDRLRPFQD [G30Y],-0.951 ± 0.14
5,KPGPLPPNLDDLKVSELRQQLRIRGLPVSSTKTALMDRLRPFQD [G30S],-0.779 ± 0.1
6,KPGPLPPNLDDLKVSELRQQLRIRGLPVSTTKTALMDRLRPFQD [G30T],-0.901 ± 0.3
7,KPGPLPPNLDDLKVSELRQQLRIRGLPVSDTKTALMDRLRPFQD [G30D],-0.504 ± 0.13
8,KPGPLPPNLDDLKVSELRQQLRIRGLPVSGTKTASMDRLRPFQD [L35S],-0.418 ± 0.1
9,KPGPLPPNLDDLKVSELRQQLRIRGLPVSGTKTACMDRLRPFQD [L35C],-0.184 ± 0.2
10,KPGPLPPNLDDLKVSELRQQLRIRGLPVSGTKTANMDRLRPFQD [L35N],-0.613 ± 0.17
11,KPGPLPPNLDDLKVSELRQQLRIRGLPVSGTKTAGMDRLRPFQD [L35G],-0.489 ± 0.068
12,KPGPLPPNLDDLKVSELRQQLRIRGLPVSGTKTAEMDRLRPFQD [L35E],-0.293 ± 0.076
13,KPGPLPPNLDDLKVSELRQQLRIRGLPVSGTKTAQMDRLRPFQD [L35Q],-0.226 ± 0.1
14,KPGPLPPNLDDLKVSELRQQLRIRGLPVSGTKTATMDRLRPFQD [L35T],-0.551 ± 0.097
15,KPGPLPPNLDDLKVSELRQQLRIRGLPVSGTKTAIMDRLRPFQD [L35I],0.092 ± 0.26
16,KPGPLPPNLDDLKVSELRQQLRIRGLPVSGTKTAHMDRLRPFQD [L35H],-0.943 ± 0.25
17,KPGPLPPNLDDLKVSELRQQLRIRGLPVSGTKTAMMDRLRPFQD [L35M],0.064 ± 0.093
18,KPGPLPPNLDDLKVSELRQQLRIRGLPVSGTKTAKMDRLRPFQD [L35K],-0.469 ± 0.093
19,KPGPLPPNLDDLKVSELRQQLRIRGLPVSGTKTADMDRLRPFQD [L35D],-0.459 ± 0.15
20,KPGPLPPNLDDLKVSELRQQLRIRGLPVSGTKTARMDRLRPFQD [L35R],-0.799 ± 0.077

row,Variant,abundance fitness
1,KPGPLPPNLDDLKVSELRQQLRIRGLPVSGTKTAVMDRLRPFQD [L35V],-0.459 ± 0.081
2,KPGPLPPNLDDLKVSELRQQLRIRGLPVSGTKTAWMDRLRPFQD [L35W],-0.561 ± 0.11
3,KPGPLPPNLDDLKVSELRQQLRIRGLPVSGTKTAPMDRLRPFQD [L35P],-0.578 ± 0.079
4,KPGPLPPNLDDLKVSELRQQLRIRGLPVSGTKTALVDRLRPFQD [M36V],-0.183 ± 0.075
5,KPGPLPPNLDDLKVSELRQQLRIRGLPVSGTKTALGDRLRPFQD [M36G],-0.668 ± 0.074
6,KPGPLPPNLDDLKVSELRQQLRIRGLPVSGTKTALKDRLRPFQD [M36K],-0.083 ± 0.2
7,KPGPLPPNLDDLKVSELRQQLRIRGLPVSGTKTALCDRLRPFQD [M36C],-0.454 ± 0.16
8,KPGPLPPNLDDLKVSELRQQLRIRGLPVSGTKTALADRLRPFQD [M36A],-0.255 ± 0.066
9,KPGPLPPNLDDLKVSELRQQLRIRGLPVSGTKTALQDRLRPFQD [M36Q],-0.398 ± 0.16
10,KPGPLPPNLDDLKVSELRQQLRIRGLPVSGTKTALLDRLRPFQD [M36L],-0.449 ± 0.098
11,KPGPLPPNLDDLKVSELRQQLRIRGLPVSGTKTALSDRLRPFQD [M36S],-0.64 ± 0.12
12,KPGPLPPNLDDLKVSELRQQLRIRGLPVSGTKTALPDRLRPFQD [M36P],-0.419 ± 0.098
13,KPGPLPPNLDDLKVSELRQQLRIRGLPVSGTKTALEDRLRPFQD [M36E],-0.463 ± 0.12
14,KPGPLPPNLDDLKVSELRQQLRIRGLPVSGTKTALIDRLRPFQD [M36I],-0.125 ± 0.16
15,KPGPLPPNLDDLKVSELRQQLRIRGLPVSGTKTALWDRLRPFQD [M36W],-0.935 ± 0.089
16,KPGPLPPNLDDLKVSELRQQLRIRGLPVSGTKTALRDRLRPFQD [M36R],-0.216 ± 0.066
17,KPGPLPPNLDDLKVSELRQQLRIRGLPVSGTKTALTDRLRPFQD [M36T],-0.27 ± 0.094
18,KPGPLPPNLDDLKVSELRQQLRIRGLPVSGTKTALDDRLRPFQD [M36D],-0.505 ± 0.19
